Values quoted from earlier work in patent publication US8232251B2, “Compounds for delivery of therapeutic and imaging moieties to nerve cells” (Manzanita Pharmaceuticals, Inc., priority 1998, dated 2012).

Biological target: T1, p75 (Homo sapiens, UniProt P08138)
T1 sequence (P08138 29-427): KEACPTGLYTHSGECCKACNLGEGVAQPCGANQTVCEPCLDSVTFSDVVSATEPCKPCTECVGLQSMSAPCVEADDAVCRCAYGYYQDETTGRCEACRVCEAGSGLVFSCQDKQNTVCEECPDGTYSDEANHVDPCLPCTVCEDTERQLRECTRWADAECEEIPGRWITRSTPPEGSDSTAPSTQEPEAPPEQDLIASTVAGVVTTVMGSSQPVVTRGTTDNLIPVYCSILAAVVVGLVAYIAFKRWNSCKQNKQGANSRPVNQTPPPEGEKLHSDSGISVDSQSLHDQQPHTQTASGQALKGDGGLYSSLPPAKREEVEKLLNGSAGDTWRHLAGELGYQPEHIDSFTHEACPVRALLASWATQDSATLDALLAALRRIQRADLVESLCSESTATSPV
Conditions: lower affinity binding to more abundant p75

Kd: 1 nM
Substance: NGF: nerve growth factor, first identified member of the neurotrophin family; used as binding agent B
